T1: MSR1-mediated Dil-AcLDL uptake in HEK293.Myc.hMSR1 cells (Homo sapiens, UniProt P21757)
T1 construct: expressed in transfected cells; host or cells: HEK293 (lentiviral transduction, hygromycin selection)
T1 sequence (P21757 1-451): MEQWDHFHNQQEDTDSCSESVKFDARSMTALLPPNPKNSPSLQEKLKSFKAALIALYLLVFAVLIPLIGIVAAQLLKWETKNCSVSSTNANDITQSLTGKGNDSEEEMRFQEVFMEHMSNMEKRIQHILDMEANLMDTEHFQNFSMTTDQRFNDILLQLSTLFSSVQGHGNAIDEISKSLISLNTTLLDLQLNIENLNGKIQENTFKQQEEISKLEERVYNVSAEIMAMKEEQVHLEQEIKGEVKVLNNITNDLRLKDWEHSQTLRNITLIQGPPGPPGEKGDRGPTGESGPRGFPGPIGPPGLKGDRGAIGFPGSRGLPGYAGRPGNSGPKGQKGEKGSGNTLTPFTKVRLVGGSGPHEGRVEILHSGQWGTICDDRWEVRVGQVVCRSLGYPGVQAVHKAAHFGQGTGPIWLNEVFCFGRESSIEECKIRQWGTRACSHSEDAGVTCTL

T2: MSR1 on differentiated THP-1 cells (Homo sapiens, UniProt P21757)
T2 construct: endogenous in cells; host or cells: THP-1 cells differentiated with PMA
T2 sequence (P21757 1-451): T1 sequence (P21757 1-451)

B1: H1H21227N-N297Q: "modified versions of 21227N (H1H21227N-N297Q and H1H21227N-N297D)"; anti-MSR1 antibody "with a N297Q single point mutation" (antibody, V domains shown)
VH: QVQLVQSGAEVKKPGASVKVSCKVSGYTLTELSIHWVRQVPGKGLEWMGGFDPEEGETIFAQEFRDRVTLTEDTSPDTAYMELSSLKSEDAAVYYCTTPRYCNNGICYDYWGQGTLVTVSS
VL: DIQMTQSPSSLSASVGDRVTITCRASQSISNYLNWYQQKPGKAPKLLIYTASSLQSGVPSRFSGSGSGTDFTLTISSLQTEDFATYYCQQSYSNFPITFGQGTRLEIKR
B2: H1H27734P-N297Q: one of "Twelve anti-MSR1 antibodies"; "made with an N297Q single point mutation in human Fcγ portion" (antibody, V domains shown)
VH: EVQLVESRGGLVQPGGSLRLSCAASGFTFSSYAMSWVRQAPGKGLEWVSAISGSGGSTFYADSVKGRFTISRDNSKNTVYLQMNSLRAEDTAVYYCAKALVLRFLEWLGDYWGQGTLVTVSS
VL: DIQMTQSPSTLSASVGDRVTITCRASQSISSWLAWFQQKPGKAPKLLIYKASSLESGVPSRFSGSGSGTEFTLTISSLQPDDFATYYCQQYKSYWTFGQGTKVEIKR

Tests used:
parental HEK293 cells = assay: Electrochemiluminescence antibody binding assay, non-specific binding control cells; type: cell-based, human
[1] = target: T1, MSR1-mediated Dil-AcLDL uptake in HEK293.Myc.hMSR1 cells; assay: Ligand uptake assay, Dil-AcLDL; type: cell-based; details: 10 μg/mL Dil-AcLDL; for Dil-Acetylated LDL % Inhibition: maximum inhibition
Procedure: A bioassay was generated to assess the ability of the exemplary anti-MSR1 antibodies to regulate the uptake of certain MSR1 ligands.
Generation of MSR1-expressing cell lines for assay. […] The resulting cell line, referred to here as “HEK293.Myc.hMSR1”, was selected and maintained in DMEM containing 10% FIBS, NEAA, penicillin/streptomycin, L-glutamine, and 100 μg/mL hygromycin.
Ligand uptake assay. […] After 30 minutes, either oxidized or acetylated low-density lipoprotein (LDL) labeled with 1,1′dioctadecyl-3,3,3′,3′-tetramethylindocarbocyanine perchlorate (referred to as “Dil-OxLDL” or “Dil-AcLDL,” respectively) was added to the cells at a constant concentration of 10 μg/mL. […] Results were analyzed using nonlinear regression (4-parameter logistics) with the Prism 7 program to obtain EC50 and IC50 values. The percentage of inhibition was calculated with the Relative Fluorescent Unit (RFU) values by using the following equation: […]
In the equation, “RFUBaseline” is the fluorescence value from the cells treated with 10 μg/mL ligand without antibodies, “RFUInhibition” is the minimum fluorescence value with for a particular antibody with 10 μg/mL ligand, and “RFUBackground” is the fluorescence value from cells without any ligand or antibodies.

[2] = target: T2, MSR1 on differentiated THP-1 cells; assay: Binding and internalization of cell-surface expressed MSR1 in differentiated THP-1 cells; type: cell-based; details: 10 μg/mL antibody; for Total Binding at 37° C. / Total Internalized RFU: 37° C.
Procedure: Exemplary anti-MSR1 antibodies were assessed for their ability to bind and internalize MSR1 on MSR1-expressing cells.
The THP-1 cells were allowed to differentiate for 4 days at 37° C. in 5% CO2. […] The remaining two plates were incubated at 37° C. for 1 hour followed by fixation and staining for 20 minutes using a solution of 4% PFA+5 μM DRAQ5 diluted in PBS (internalization plates). After fixation, all plates were washed once with PBS. […] The remaining plates were incubated with PBS only. Confocal images were acquired on the Opera Phenix (Perkin Elmer) at 40× magnification. […] The total binding at 4° C. (RFU values of 4° C. unquenched wells), total binding at 37° C. (RFU values of 37° C. unquenched wells), the total internalized RFU, and % Internalization were determined for each antibody as shown in Table 14.
For all calculations, background fluorescence from unstained wells was subtracted from every well. Total internalized RFU was calculated as follows: Total RFU of 37° C. unquenched samples−Surface RFU at 37° C. Surface RFU is defined as unquenched RFU at 37° C.−quenched RFU at 37° C.)/QE. QE (quenching efficiency) is defined as: 1−(Total RFU of 4° C. quenched sample/Total RFU of 4° C. unquenched sample). The % Internalization was determined from the following formula: (Total internalized RFU at 37° C./Total RFU at 37° C.)*100.

| Molecule | Ratio of 11 nM Antibody Binding Signal (RLU) to isotype control, HEK293 (parental HEK293 cells) | IC50 ([1]; read-out: Dil-Acetylated LDL IC50) [nM] | Dil-Acetylated LDL % Inhibition [1] | % Internalization [2] [%] | Total Binding at 4° C. [2] | Total Binding at 37° C. [2] | Total Internalized RFU [2] [RFU] | Dil-Acetylated LDL IC50 [1] | maximum inhibition of Dil-AcLDL uptake [1] |
| --- | --- | --- | --- | --- | --- | --- | --- | --- | --- |
| B1 | 1 | 2.4 | 65% | 78.5 | 1800012 | 4110990 | 3226161 |  |  |
| B2 | 14 |  | no inhibition |  | 482859 | 1151348 | 737425 | no inhibition | no inhibition |

Reference: patent US12497460B2, “Anti-MSR1 antibodies and methods of use thereof” (REGENERON PHARMACEUTICALS, INC., priority 2018, dated 2025)
